In patent US20170281792A1 (Genentech, published 2017):

Tests used:
[1] = target: T1, E. coli derived recombinant human mesothelin (human, UniProt Q13421 296-580); test: Biacore-2000, IgG over immobilised E. coli derived human mesothelin, 1:1 fit
T1 construct: not shown: N-terminal unizyme His (HQ)-tag
Method: (§1) 7D9 variants were expressed as IgG by CHO transient transfection. IgG was purified with protein G affinity chromatography. The affinity of each 7D9 IgG variant for human mesothelin was determined by surface plasmon resonance using a BIACORE™-2000. BIACORE™ research grade CM5 chips were immobilized with approximately 110 RU of E. coli derived recombinant human mesothelin using the amine coupling kit from BIACORE™. […] Each sample was analyzed with 5-minute association and 3.5-minute dissociation. After each injection the chip was regenerated using 10 mM Glycine pH 1.7. Binding response was corrected by subtracting the RU from a flow cell with an irrelevant IgG immobilized at similar density. A 1:1 Languir model of simultaneous fitting of kₒₙ and koff was used for kinetics analysis.

[2] = target: T2, gD epitope-tagged rat mesothelin expressed on cells (rat, UniProt Q9ERA7 298-582); test: Scatchard analysis on BJAB cells stably expressing gD-tagged rat mesothelin
T2 sequence: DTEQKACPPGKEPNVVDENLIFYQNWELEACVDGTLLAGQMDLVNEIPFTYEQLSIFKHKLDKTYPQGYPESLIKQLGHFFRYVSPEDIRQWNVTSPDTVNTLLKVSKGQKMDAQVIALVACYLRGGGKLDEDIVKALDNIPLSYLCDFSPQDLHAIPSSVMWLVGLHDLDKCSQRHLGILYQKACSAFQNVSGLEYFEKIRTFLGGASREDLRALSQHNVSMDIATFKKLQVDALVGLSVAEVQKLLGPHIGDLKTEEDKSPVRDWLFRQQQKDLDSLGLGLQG

[3] = target: T3, gD epitope-tagged cynomolgus monkey mesothelin expressed on cells (construct #383) (cynomolgus monkey); test: Scatchard analysis on BJAB cells stably expressing gD-tagged cyno mesothelin
T3 construct: also called cyno mesothelin
T3 chain: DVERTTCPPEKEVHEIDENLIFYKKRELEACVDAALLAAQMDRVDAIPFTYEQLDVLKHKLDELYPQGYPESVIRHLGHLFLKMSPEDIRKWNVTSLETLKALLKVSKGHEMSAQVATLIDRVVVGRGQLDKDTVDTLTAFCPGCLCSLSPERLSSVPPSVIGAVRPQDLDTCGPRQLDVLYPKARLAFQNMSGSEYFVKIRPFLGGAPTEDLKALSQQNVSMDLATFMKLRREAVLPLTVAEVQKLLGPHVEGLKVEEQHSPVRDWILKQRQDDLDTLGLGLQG

[4] = target: T4, human mesothelin on cells (endogenous on tumour cell lines and tissue, or stably expressed on A431 or HT1080 … (human, UniProt Q13421 296-580)); test: Scatchard analysis (125I-labelled antibody) on OvCar3x2.1 cells, endogenous mesothelin
T4 construct: also called endogenous mesothelin; endogenous human mesothelin
Method: (§2) The data was analyzed with non-linear regression curve fitting in the New Ligand program (Genentech, Inc., South San Francisco, Calif.) to estimate Kd values (Munson et al., Anal. Biochem., 107 220-239 (1980)).

[5] = target: T4, human mesothelin on cells (endogenous …); test: Scatchard analysis (125I-labelled antibody) on AsPC1 cells, endogenous mesothelin
Method: as §2

[6] = target: T3, gD epitope-tagged cynomolgus monkey …; test: Scatchard analysis (125I-labelled antibody), row 'Cyno BJAB', stably transfected cells
Method: as §2

[7] = target: T5, gD epitope-tagged human mesothelin expressed on cells (construct #387) (human, UniProt Q13421 296-580); test: Scatchard, 125I-labelled antibody on stably transfected HT1080 cells
T5 construct: also called gD-human mesothelin; gD-tagged human mesothelin
Method: as §2

[8] = target: T4, human mesothelin on cells (endogenous …); test: Scatchard analysis (125I-labelled antibody) on Capan2 cells, endogenous mesothelin
Method: as §2

[9] = target: T6, gD epitope-tagged mouse mesothelin expressed on cells (construct #385) (mouse, UniProt Q61468 298-582); test: FACS on stably transfected 293 cells
T6 sequence: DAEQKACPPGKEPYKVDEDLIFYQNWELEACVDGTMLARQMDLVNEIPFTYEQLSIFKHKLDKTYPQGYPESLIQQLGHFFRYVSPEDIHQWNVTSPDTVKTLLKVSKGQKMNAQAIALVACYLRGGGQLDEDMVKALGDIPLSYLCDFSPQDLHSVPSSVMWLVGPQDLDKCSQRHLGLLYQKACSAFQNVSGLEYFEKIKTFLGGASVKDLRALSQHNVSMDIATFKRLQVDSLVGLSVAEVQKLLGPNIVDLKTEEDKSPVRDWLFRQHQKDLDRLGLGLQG
Method: Monoclonal antibodies were tested to determine if they cross-react with mesothelin from species other than human. […] Shaded residues are identical between at least two species. Unshaded residues differ between at least two of the four species. […] Anti-gD staining verified that mouse mesothelin was indeed expressed.

[10] = target: T4, human mesothelin on cells (endogenous …); test: Scatchard analysis (125I-labelled antibody) on HPAF-II cells, endogenous mesothelin
Method: as §2

[11] = target: T4, human mesothelin on cells (endogenous …); test: Scatchard analysis (125I-labelled antibody) on OvCar3 cells, endogenous mesothelin
Method: as §2

[12] = target: T4, human mesothelin on cells (endogenous …); test: Scatchard; endogenous human mesothelin on cell lines
Method: as §2

[13] = target: T4, human mesothelin on cells (endogenous …); test: Scatchard analysis (125I-labelled antibody) on HPAC cells, endogenous mesothelin
Method: as §2

[14] = target: T2, gD epitope-tagged rat mesothelin …; test: Scatchard, 125I-labelled antibody on stably transfected BJAB cells
Method: as §2

[15] = target: T5, gD epitope-tagged human mesothelin …; test: as above
Method: as §2

[16] = target: T3, gD epitope-tagged cynomolgus monkey …; test: Scatchard analysis (125I-labelled antibody), row 'Cyno 293', stably transfected cells
Method: as §2

[17] = target: T2, gD epitope-tagged rat mesothelin …; test: Scatchard, 125I-labelled antibody on stably transfected 293 cells
Method: as §2

[18] = target: T5, gD epitope-tagged human mesothelin …; test: as above
Method: as §2

[19] = target: T3, gD epitope-tagged cynomolgus monkey …; test: Scatchard analysis (125I-labelled antibody), row 'Cyno HT1080', stably transfected cells
Method: as §2

[20] = target: T7, endogenous rat mesothelin on the normal pleural cell line 4/4-RM4 (rat, UniProt Q9ERA7 298-582); test: Scatchard on the normal rat pleural cell line 4/4-RM4
T7 sequence: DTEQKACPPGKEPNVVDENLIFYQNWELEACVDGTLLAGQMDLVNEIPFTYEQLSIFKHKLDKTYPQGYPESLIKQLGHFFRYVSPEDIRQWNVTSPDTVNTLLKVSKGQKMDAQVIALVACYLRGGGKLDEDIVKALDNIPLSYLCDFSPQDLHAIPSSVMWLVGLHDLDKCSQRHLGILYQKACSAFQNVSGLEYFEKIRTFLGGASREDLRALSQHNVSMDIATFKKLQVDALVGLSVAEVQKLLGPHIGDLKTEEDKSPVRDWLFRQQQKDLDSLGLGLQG
Method: as §2

[21] = target: T1, E. coli derived recombinant human …; test: SPR (Biacore), IgG over immobilized E. coli derived human mesothelin
Method: as §1
The human acceptor framework used for humanization of 7D9 is based on the human VL kappa I consensus (VLKI) and the acceptor VH framework VHATA, which differs from the human VH subgroup III consensus (VHIII) at 3 positions: R71A, N73T, and L78A (Carter et al., Proc. Natl. Acad. Sci. USA 89:4285 (1992)). The VL and VH domains of murine 7D9 were aligned with the human VLKI and VHIII domains; hypervariable regions were identified and grafted into the human acceptor framework to generate 7D9.v1 (FIGS. 4 and 5).

T4 sequence (Q13421 other isoform, or with tags, fused parts or gaps): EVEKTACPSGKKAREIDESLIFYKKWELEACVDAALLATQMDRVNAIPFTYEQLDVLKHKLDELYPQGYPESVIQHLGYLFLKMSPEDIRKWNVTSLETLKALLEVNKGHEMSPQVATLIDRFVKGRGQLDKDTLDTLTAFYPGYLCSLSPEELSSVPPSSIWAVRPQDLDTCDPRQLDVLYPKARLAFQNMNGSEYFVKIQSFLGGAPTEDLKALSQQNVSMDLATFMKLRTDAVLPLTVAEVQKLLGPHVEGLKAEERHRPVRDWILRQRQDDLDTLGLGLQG
T5 sequence (Q13421 other isoform, or with tags, fused parts or gaps): as above
T1 sequence (Q13421 other isoform, or with tags, fused parts or gaps): as above

B1: 7D9.v5 (antibody, V domains shown)
VH: EVQLVESGGGLVQPGGSLRLSCAASGYTFTTYWMHWVRQAPGKGLEWVGYIRPSTGYTEYNQKFKDRFTISADTSKNTAYLQMNSLRAEDTAVYYCARSRWLLDYWGQGTLVTVS
VL: DIQMTQSPSSLSASVGDRVTITCKSSQSVLYSSNQKNYLAWFQQKPGKAPKLLIYWASTRESGVPSRFSGSGSGTDFTLTISSLQPEDFATYYCHQYLSSYTFGQGTKVEIK
Kd [1]: 3.49 nM

B2: 7D9.v6 (antibody, V domains shown)
VH: EVQLVESGGGLVQPGGSLRLSCAASGYTFTTYWMHWVRQAPGKGLEWVGYIRPSTGYTEYNQKFKDRFTISADTSKNTAYLQMNSLRAEDTAVYYCARSRWLLDYWGQGTLVTVS
VL: DIQMTQSPSSLSASVGDRVTITCKSSQSVLYSSNQKNYLAWYQQKPGKAPKLLIYWASTRESGVPSRFSGSGSGTDFTLTISSLQPEDFATYFCHQYLSSYTFGQGTKVEIK
Kd [1]: 4.08 nM

B3: 22A10 graft (antibody, V domains shown)
VH: EVQLVESGGGLVQPGGSLRLSCAASGFTFSDYFMSWVRQAPGKGLEWVATISNGGTYTYYPDSVKGRFTISRDNSKNTLYLQMNSLRAEDTAVYYCARFDGYYFDYWGQGTLVTVSS
VL: DIQMTQSPSSLSASVGDRVTITCRASQDISNYLNWYQQKPGKAPKLLIYYTSRLHSGVPSRFSGSGSGTDFTLTISSLQPEDFATYYCQQGNTLPYTFGQGTKVEIK
notes: also called hu22A10graft; 22A10 CDR graft
Kd [2]: 1.9 nM
Kd [3]: 1 nM

B4: humanized monoclonal antibody 22A10.v83 (antibody, V domains shown)
VH: EVQLVESGGGLVQPGGSLRLSCAASGFTFSDYFMSWVRQAPGKGLEWVATISNGGTYTYYPDSVKGRFTISRDNSKNTLYLQMNSLRAEDTAVYYCARFDGYIFDYWGQGTLVTVSS
VL: DIQMTQSPSSLSASVGDRVTITCRASQDISNYLNWYQQKPGKAPKLLIYYTSRLHSGVPSRFSGSGSGTDFTLTISSLQPEDFATYYCQQGNTLPYTFGQGTKVEIKR
notes: also called h22A10.v83; hu22A10.v83
Kd [4]: 9 nM
Kd [5]: 9.3 nM
Kd [6]: 1.3 nM
Kd [7]: 6.2 nM
Kd [8]: 4.2 nM
binding result [9]: no binding (tested: 10 µg/ml)
Kd [10]: 10.4 nM
Kd [11]: 9.2 nM
Kd [12]: 9 to 10 nM
Kd [13]: 9.4 nM
Kd [14]: 2.7 nM
Kd [15]: 1.8 nM
Kd [3]: 1.3 nM
Kd [16]: 4.3 nM
Kd [17]: 7.3 nM
Kd [18]: 2.7 nM
Kd [19]: 6.4 nM
Kd [20]: 6.2 nM

B5: chimeric 7D9 (antibody, V domains shown)
VH: QVQLQQSGAELAKPGASVKMSCKASGYTFTTYWMHWVKQRPGQGLEWIGYIRPSTGYTEYNQKFKDKATLTADKSSSTAYMQLSSLTSEDSTVYYCARSRWLLDYWGQGTSLTVS
VL: DIMMTQSPSSLAVSAGEKVTMSCKSSQSVLYSSNQKNYLAWFQQKPGQSPKLLIYWASTRESGVPDRFTGSGSGTDFTLTISSVQAEDLAVYFCHQYLSSYTFGGGTKVEIK
notes: also called ch7D9; mu7D9 (formatted as a chimeric 7D9)
Kd [1]: 1.84 nM

B6: 7D9.v1 (antibody, V domains shown)
VH: EVQLVESGGGLVQPGGSLRLSCAASGYTFTTYWMHWVRQAPGKGLEWVGYIRPSTGYTEYNQKFKDRFTISADTSKNTAYLQMNSLRAEDTAVYYCARSRWLLDYWGQGTLVTVS
VL: DIQMTQSPSSLSASVGDRVTITCKSSQSVLYSSNQKNYLAWYQQKPGKAPKLLIYWASTRESGVPSRFSGSGSGTDFTLTISSLQPEDFATYYCHQYLSSYTFGQGTKVEIK
notes: also called direct-graft 7D9.v1
fold decrease in affinity relative to mu7D9 (chimeric 7D9) [21]: ~2 fold
Kd [1]: 3.98 nM
